The values below come from patent US20120309939A1 (Scripps Research, published 2012).

For the experiment, the target named is T1, human VEGF-R2(KDR):Fc fusion protein (R&D Systems) (human, UniProt P35968 20-764).
T1 construct: Bought reagent, coated on Maxisorp plates; also called VEGF receptor; human VEGF receptor; not shown: Fc part of the bought fusion
As to the kind of experiment: ELISA on plates coated with VEGF-R2(KDR):Fc; bound VEGF detected with biotinylated anti-VEGF. For orientation: In an ELISA, binding on a coated surface is turned into a signal by an enzyme label.

T1 sequence (P35968 20-764 limits assumed): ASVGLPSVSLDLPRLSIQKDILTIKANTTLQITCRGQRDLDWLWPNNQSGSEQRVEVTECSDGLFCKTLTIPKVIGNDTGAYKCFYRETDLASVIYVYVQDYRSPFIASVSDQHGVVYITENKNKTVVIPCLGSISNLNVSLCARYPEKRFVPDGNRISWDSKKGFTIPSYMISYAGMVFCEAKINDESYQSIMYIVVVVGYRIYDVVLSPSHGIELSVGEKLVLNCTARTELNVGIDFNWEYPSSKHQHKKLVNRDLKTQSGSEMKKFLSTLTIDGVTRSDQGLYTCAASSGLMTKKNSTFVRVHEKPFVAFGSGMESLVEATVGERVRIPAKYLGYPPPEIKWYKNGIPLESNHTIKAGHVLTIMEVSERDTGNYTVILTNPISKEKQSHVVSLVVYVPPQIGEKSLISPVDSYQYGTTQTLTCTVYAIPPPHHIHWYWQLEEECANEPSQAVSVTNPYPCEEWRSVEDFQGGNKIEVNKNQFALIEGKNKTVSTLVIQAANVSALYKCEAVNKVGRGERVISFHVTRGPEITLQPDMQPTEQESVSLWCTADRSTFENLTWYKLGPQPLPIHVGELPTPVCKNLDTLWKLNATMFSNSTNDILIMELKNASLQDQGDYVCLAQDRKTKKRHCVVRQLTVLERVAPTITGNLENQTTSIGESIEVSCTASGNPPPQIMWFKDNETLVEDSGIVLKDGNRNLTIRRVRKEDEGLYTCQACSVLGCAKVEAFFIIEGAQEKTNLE

B1: algal-expressed human vascular endothelial growth factor (VEGF) isoform 121, without signal peptide, with C-terminal FLAG-tag, made in the C. reinhardtii … (ligand)
chain: MVPAPMAEGGGQNHHEVVKFMDVYQRSYCHPIETLVDIFQEYPDEIEYIFKPSCVPLMRCGGCCNDEGLECVPTEESNITMQIMRIKPHQGQHIGEMSFLQHNKCECRPKKDRARQENCDKPRRGTGENLYFQGSGGGGSDYKDDDDKGTG
notes: Native VEGF is active as a dimer; also called algal VEGF; algae-derived VEGF
For B1, the binding result is reported as “binds”.
